B10: h1x antigen (E3-S5-pore segment fused to the C-terminal coiled coil domain of Kv10.1 and to thioredoxin) (domain or fragment, human)
chain: IGDYEIFDEDTKTIRNNSWLYQLAMDIGTPYQFNGSGSGKWEGGPSKNSVYISSLYFTMTSLTSVGFGNIAPSTDIEK
notes: Kv10.1 voltage-gated potassium channel, E3 segment (extracellular linker between S5 and S6 transmembrane segments, extending to the pore loop); numbers count on: Homo sapiens Kv10.1, isoform 1 (UniProt O95259-2); Kv10.1 voltage-gated potassium channel, C-terminal tetramerizing coiled-coil (C-terminal assembly domain); The coiled coil was added with the aim to induce tetramerization; the …

In test [1] the target is B10. The test can be described thus: SPR; recombinant antigen h1x immobilised on the chip; serial dilution of nanobody as analyte (D9 3.12 nM to 200 nM, C4 25 nM to 400 nM); 1:1 Langmuir model. The conditions noted are these: both partners purified.
Test [2] addresses B10. Briefly: ELISA; plates coated overnight with 500 ng h1x in TBS, blocked with 2% BSA; VHHs (E. coli culture supernatants) incubated 2 h at different concentrations; detected by mouse anti-His antibody and peroxidase-conjugated anti-mouse; apparent affinities. Conditions: one partner purified.
Test [3] concerns the target B10. The description is as above. The conditions noted are these: one partner purified. The source holds these as a separate data set.
Test [4] concerns the target B10.
The target of test [5] is T1, VHH-D9-scTRAIL (llama (Lama glama) | ).
T1 construct: nanobody D9, as the VHH of m4 without its His tag; TRAIL (Tumor Necrosis Factor-Related Apoptosis-Inducing Ligand) fragment, first of three in single-chain TRAIL; short peptide linker between TRAIL fragments; TRAIL fragment, second of three in single-chain TRAIL; TRAIL fragment, third of three in single-chain TRAIL; a linker between VHH and scTRAIL is not described; Vector tags were eliminated by …
Briefly: ELISA; plates coated with 500 ng h1x or h2x, blocked with 3% BSA; Ab-scTRAIL constructs (CHO-K1 supernatants, not further purified) incubated 2 h at different concentrations; detected with the anti-TRAIL conjugate of the Quantikine TRAIL ELISA kit; apparent affinities. Conditions: one partner purified.

B1: anti-Kv10.1 nanobody VHH-C4 (VHH)
VHH: RLLLVQSGGGLVQAGGSLRLSCAASGRTFSNYAMYWFRQTPGKDREFVASISYSGTFTDYAGSVKGRFTISRDNAKNTLYLQMNSLRPEDTAVYYCSLDRHYWGPGTQVTVSS
notes: Short CDR3 (six residues); His tag comes from the phage display vector; The preparation used for SPR is not described; source: E. coli TG1TR, culture supernatants (ELISA)
Turning to B1, the Kd came to 1800 nM in test [1], 81 nM in test [2] and 87 nM in test [3].

B2: anti-Kv10.1 nanobody VHH-D9 (VHH)
VHH: QVQLVQSGGGLVQAGGSLRLSCAASGRTFSNYAMYWFRQTPGKDREFVASISYSGTFTDYAGSVKGRFTISRDNAKNRLYLQMNSLKPEDTAVYYCSLDRLYWGQGTQVTVSS
notes: a model in PDB format is also in the Supplementary Information; Short CDR3 (six residues); His tag comes from the phage display vector; The preparation used for SPR is not described; source: E. coli TG1TR, culture supernatants (ELISA)
With B2, the Kd is 78 nM in test [1] and 11 nM in test [3].

B3: anti-Kv10.1 nanobody G1 (VHH)
VHH: VQLVEVWGRIGAKRGGSLRLSCTAAGRTFSSYILAWFRQAPGEERKFVAGITGNGETGYSNSVKGRFTISRDNAKNTVLLQMNNLKPEDTAVYYCAAHSRSIYYYRGPDLYDYWGQGTQVTVSS
notes: From a phage display library of a llama immunised with h1x; His tag comes from the phage display vector; source: E. coli TG1TR, culture supernatants (ELISA)
Regarding B3, in test [3], the Kd is 431 nM.

B4: anti-Kv10.1 nanobody F5 (VHH)
VHH: QVQLVQSGGGLVQAGGSLRLSCAASGRTFENYIMAWFRQAPGEERKFVAAITGNGGTGYADSVKGRFTISRDNAKNTVLLQMNSLKPEDTAVYYCAAHSRSSYYYKGPDLYDYWGQGTQVTVSS
notes: as for B3
B4: the Kd in test [3] turned out to be 470 nM.

B5: E12 (VHH)
VHH: EVQLVESGGGLVQAGGSLRLSCTASGRTFSSYIFAWFRQAPGEERKFVAGITGNGGTGYSNSVKGRFTISRDNAKNTVLLQMNNLKPDDTAVYYCAAHSRSSYYYRGPDLYDYWGQGTQVTVSS
Consider B5, for which the binding result in test [4] is listed as “binds”.

B6: anti-Kv10.1 nanobody A12 (VHH)
VHH: RCKLQESGGGLVQAGGSLRLSCTAAGRTFSSYILAWFRQAPGEERKFVAGITGNGETGYSNSVKGRFTISRDNAKNTVLLQMNNLKPEDTAVYYCAAHSRSTYYYRGPDLYDYWGQGTQVTVSS
notes: as for B3
As for B6, the Kd in test [3] was 343 nM.

B7: anti-Kv10.1 nanobody G4 (VHH)
VHH: QVQLVQSGGGLVQAGGSRRLSCTASGRTFSSYILGWFRQAPGEERKFVAAITGNGGTGYADSVKGRFTISRDNAKNTVLLQMNSLKPEDTAVYYCAAHSRSSYYYRGPDLYDYWGQGTQVTVSS
notes: as for B3
As for B7, the Kd in test [3] amounted to 943 nM.

B8: anti-Kv10.1 nanobody F6 (VHH)
VHH: QVQLVQSGGGLVQAGGSLRLSCTASGRTFGSYILAWFRQTPGEERKFVAGITGNGGTGYSDSVKGRFTISRDNAKNTVLLQMNNLKPEDTAVYYCAAHSRSSYYYKGPDLYDYWGQGTQVTVSS
notes: as for B3
For the molecule B8, in test [3], the Kd was determined as 177 nM.

B9: G10 (VHH)
VHH: EVQLVESGGGLVQPGGSLRLSCTAAGRTFSTYILAWFRQAPGEERKFVAGITGNGETGYSNSVKGRFTIARDNAKNTVFLQMNNLKPEDTAVYYCAAHSRSTYYYKGPDLYDYGQGTQVTVSS
On to B9, for which the binding result in test [4] was “binds”. For B10, in test [5], the Kd was determined as 0.029 nM.

These data come from publication PMC7246340, “A Novel Anti-Kv10.1 Nanobody Fused to Single-Chain TRAIL Enhances Apoptosis Induction in Cancer Cells” (Frontiers in Pharmacology, 2020).
